In PMC5068848:

T1: PBF (prolamin-box binding factor) (Zea mays, UniProt O24463 1-328)
T1 sequence: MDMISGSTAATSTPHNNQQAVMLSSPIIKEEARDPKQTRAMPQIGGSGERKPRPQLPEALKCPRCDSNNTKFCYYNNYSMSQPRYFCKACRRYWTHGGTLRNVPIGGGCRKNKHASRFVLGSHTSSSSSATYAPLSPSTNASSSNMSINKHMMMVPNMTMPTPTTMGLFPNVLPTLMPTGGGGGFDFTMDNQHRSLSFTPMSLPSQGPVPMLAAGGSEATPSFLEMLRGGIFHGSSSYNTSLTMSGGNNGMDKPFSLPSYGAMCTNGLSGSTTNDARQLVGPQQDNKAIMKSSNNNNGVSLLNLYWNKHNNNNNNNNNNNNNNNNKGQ

B1: z1A P box (dsDNA)
DNA 1: GGCTATCGTTACACATGTGTAAAGGTATTGCATCACACCATT
DNA 2: AATGGTGTGATGCAATACCTTTACACATGTGTAACGATAGCC
B2: z1C P-box (dsDNA)
DNA 1: TCATGTTAATGTTGTCACATGTGTAAAGGTGAAGAGATCTTGCATGT
DNA 2: ACATGCAAGATCTCTTCACCTTTACACATGTGACAACATTAACATGA
B3: z1A O2-like box (dsDNA)
DNA 1: ATCAAGTTTGTCTTGCTTACGTATAAATTATAACCCAACA
DNA 2: TGTTGGGTTATAATTTATACGTAAGCAAGACAAACTTGAT
B4: z1D-P1 (dsDNA)
DNA 1: TTTTGTGCAAATTGTTTTGTCGACATATAAAGTGTAAGATAAGAAA
DNA 2: TTTCTTATCTTACACTTTATATGTCGACAAAACAATTTGCACAAAA
B5: z1C O2-box (dsDNA)
DNA 1: GAGATCTTGCATGTCATTCCACGTAGATAAAAAGAATGCATATATA
DNA 2: TATATATGCATTCTTTTTATCTACGTGGAATGACATGCAAGATCTC
B6: z1B-P3 (dsDNA)
DNA 1: AACTCAATCTACATAAGCACAAGGTCTAACATGTGTATAA
DNA 2: TTATACACATGTTAGACCTTGTGCTTATGTAGATTGAGTT
B7: z1B-P2 (dsDNA)
DNA 1: CAAAGCCAACTAGATACCACATCATCTCTAGCTTATCTTA
DNA 2: TAAGATAAGCTAGAGATGATGTGGTATCTAGTTGGCTTTG

Molecular target: T1, PBF (prolamin-box binding factor)
Test: EMSA

Binding result, binds:
B1, B2

Molecular target: OHP1 (Zea mays, UniProt Q03462 1-405)
Test: EMSA

Binding result, binds:
B3, B4, B5, B6, B7
